The values below come from paper PMC5479570.

This test concerns the target CD4-IgG2 (UniProt P01730). Nature of the test: BLI. For orientation: In BLI a coated tip is dipped into the sample, and binding shifts an interference pattern.

As usually defined, the Kd is the equilibrium constant for the complex coming apart. As usually defined, the koff is the first-order rate constant of dissociation. Read a low koff as slow dissociation. For orientation: kon means the second-order rate constant of association. A higher kon goes with faster complex formation. Consider “HIV-1 clade B YU2 gp120 glycoprotein, ΔV3 (from UniProt P35961 32-498) (natural protein)”, for which the Kd amounted to 0.91 nM, the koff was 0.00015 s⁻¹ and the kon was 160000 M⁻¹ s⁻¹.
As for “HIV-1 clade B YU2 gp120 extended core (Coree) (domain or fragment)”, the Kd turned out to be 0.12 nM, the koff came to 5.9e-05 s⁻¹ and the kon was 474000 M⁻¹ s⁻¹.
Taken in the same sequence, the figures for “HIV-1 clade B YU2 gp120 glycoprotein, ΔV1/V2 (from UniProt P35961 32-498) (natural protein)” were 0.34 nM, 5.4e-05 s⁻¹ and 178000 M⁻¹ s⁻¹.
